Data taken from publication PMC2213607 (The Journal of Cell Biology, 2008).
Substitutions are numbered along the chain they refer to. Names and notes keep the numbering of the source. Blank lines part the entries; values can stand above or below the binder they belong to.

Key:
[1] = biological target: His-tagged (6×) human Rab6A (human, UniProt P20340 1-208); test: pull-down
[2] = biological target: the molecule itself

His-tagged (6×) human Rab6A, sequence (P20340 whole entry): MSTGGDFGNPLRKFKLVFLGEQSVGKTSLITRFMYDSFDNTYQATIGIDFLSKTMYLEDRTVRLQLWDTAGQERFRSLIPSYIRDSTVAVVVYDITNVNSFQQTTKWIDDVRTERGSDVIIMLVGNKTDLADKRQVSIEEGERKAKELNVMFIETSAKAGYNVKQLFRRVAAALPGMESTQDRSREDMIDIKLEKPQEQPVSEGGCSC

binding result [1]: binds
B1: GCC185 C-110 (fragment of the 110 C-terminal-most amino acids of GCC185) (domain or fragment, UniProt Q8IWJ2 1575-1684, looked up)
chain: LNGLLRETEATNAILMEQIKLLKSEIRRLERNQEREKSAANLEYLKNVLLQFIFLKPGSERERLLPVINTMLQLSPEEKGKLAAVAQGEEENASRSSGWASYLHSWSGLR

B2: GCC185 C-110 I1588A/L1595A (domain or fragment, UniProt Q8IWJ2 1575-1684, looked up)
chain: B1 chain with I14A, L21A
stoichiometry N [2]: 2
